Assay results published in patent US20130295010A1, “HER2 BINDING PEPTIDES LABELLED WITH A 18F - CONTAINING ORGANOSILICON COMPOUND” (priority 2010, published 2013).

Assays:
[1] = mouse, in vivo, iv, 3 MBq, 1.5 h
Method: Following intravenous injection of 3 MBq of activity (2.5 MBq for the 2 min time point), animals were sacrificed at 2, 90, 120 and 180 min post injection and retention of radioactivity was assessed in key organs.

[2] = tested on: target-expressing SKOV3 tumors; details: mouse, in vivo
Method: In vivo studies were carried out with female CD-1 nude mice (Charles River Labs, Hopkinton, Mass.) with an age range between 6 and 15 weeks. Mice were housed in a ventilated rack with food and water ad libitum and a standard 12 hour day-night lighting cycle. For xenografts, animals were injected with 100 μl of cells in PBS. Cells were implanted subcutaneously in the right hindquarter. Implantation was performed under isoflurane anesthesia. For SKOV3, between 3×10^6 to 4×10^6 cells were implanted in each mouse. Under these conditions, useable tumors (100 to 300 μg) were obtained in 3 to 4 weeks in greater than 80% of animals injected.
Mice were given tail-vein injections of ˜1 μg of ^99mTc-labeled polypeptides (˜3 μCi/1 μg). […] Three mice were euthanized at each timepoint and tissues of interest dissected and counted on a Perkin Elmer Wallac Wizard 1480 Gamma Counter. […] Urine from cages was pooled with the bladder and also counted. The remaining tissues were counted and the sum of all tissues plus urine for each animal was summed to provide the total injected dose. The % injected dose for each organ was determined based on this total, and organs were weighed for determination of the % injected dose per gram, (% ID/g). […]
Mice were given tail-vein injections of ˜1 ug of ^99mTc-labeled polypeptides (˜10 μCi/1 μg). […] Urine from cages was pooled with the bladder and also counted. […]

Row | Substance | kidney retention [1] | activity in the kidneys [2]
1 | [18F]AlF-NOTA(COOH)-2-Z02891(SEQ ID No. 2) [Compound 5] | 70.3 % ID | 
2 | Z02891 (SEQ. ID No. 2) ^18F-fluorobenzyl oxime: Z02891-ONH2 (Mal-AO linker on C-terminal cysteine) conjugated with [18F]4-fluorobenzaldehyde |  | 0.95±0.07 ID/organ
